Here are results for two molecules from patent publication US8273855 (JIANGSU NOVAVAC BIO TEC, dated 2012).

In test [1] the target is T1, F3 on F3-transfected CHO cells (UniProt P12960 21-1001).
T1 construct: whole, on cells; also called F3-CHO; F3-expressing CHO cells
T1 sequence (looked up): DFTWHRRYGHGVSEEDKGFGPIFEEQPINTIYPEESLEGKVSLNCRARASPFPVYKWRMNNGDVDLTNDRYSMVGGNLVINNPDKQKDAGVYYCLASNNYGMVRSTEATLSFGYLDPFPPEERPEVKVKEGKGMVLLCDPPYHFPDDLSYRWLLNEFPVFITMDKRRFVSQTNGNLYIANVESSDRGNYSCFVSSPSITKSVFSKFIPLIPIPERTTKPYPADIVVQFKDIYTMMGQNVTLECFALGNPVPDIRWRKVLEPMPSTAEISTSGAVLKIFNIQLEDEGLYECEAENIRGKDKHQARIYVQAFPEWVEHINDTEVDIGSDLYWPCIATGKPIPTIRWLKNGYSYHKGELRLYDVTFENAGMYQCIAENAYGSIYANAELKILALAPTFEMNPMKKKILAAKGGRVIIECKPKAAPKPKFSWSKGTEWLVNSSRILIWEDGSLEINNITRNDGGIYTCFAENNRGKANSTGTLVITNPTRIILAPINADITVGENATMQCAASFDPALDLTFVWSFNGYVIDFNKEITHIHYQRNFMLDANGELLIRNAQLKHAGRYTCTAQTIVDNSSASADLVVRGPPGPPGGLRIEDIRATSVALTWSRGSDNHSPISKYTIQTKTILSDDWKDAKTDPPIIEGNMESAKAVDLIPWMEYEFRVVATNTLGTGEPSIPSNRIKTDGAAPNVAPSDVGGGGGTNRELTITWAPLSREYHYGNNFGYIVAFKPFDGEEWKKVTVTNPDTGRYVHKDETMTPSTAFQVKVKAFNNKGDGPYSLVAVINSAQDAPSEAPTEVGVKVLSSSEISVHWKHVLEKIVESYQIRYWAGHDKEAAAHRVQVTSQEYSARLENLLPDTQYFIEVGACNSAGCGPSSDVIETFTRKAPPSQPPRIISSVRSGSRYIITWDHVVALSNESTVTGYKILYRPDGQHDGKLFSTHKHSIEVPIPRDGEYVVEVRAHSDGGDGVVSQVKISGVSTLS
As to the kind of experiment: cell adhesion assay, F3-CHO cells on coated substrate.

Test [2] addresses T2, Kv1.1 (native, mouse brain extracts) (mouse, UniProt P16388 1-495).
T2 construct: also called Kv1.1 K+ channel alpha-subunit
In words: GST pull-down from adult mouse brain membrane extracts. The text has this:
(§1) During myelination, the proper segregation of K^+ channels to juxtaparanodes requires an intact paranodal axoglial junction (Vabnick and Shrager, 1998).

The target of test [3] is T3, Caspr (native, mouse brain) (mouse, UniProt O54991 21-1385).
T3 construct: also called mouse Caspr
T3 sequence (looked up): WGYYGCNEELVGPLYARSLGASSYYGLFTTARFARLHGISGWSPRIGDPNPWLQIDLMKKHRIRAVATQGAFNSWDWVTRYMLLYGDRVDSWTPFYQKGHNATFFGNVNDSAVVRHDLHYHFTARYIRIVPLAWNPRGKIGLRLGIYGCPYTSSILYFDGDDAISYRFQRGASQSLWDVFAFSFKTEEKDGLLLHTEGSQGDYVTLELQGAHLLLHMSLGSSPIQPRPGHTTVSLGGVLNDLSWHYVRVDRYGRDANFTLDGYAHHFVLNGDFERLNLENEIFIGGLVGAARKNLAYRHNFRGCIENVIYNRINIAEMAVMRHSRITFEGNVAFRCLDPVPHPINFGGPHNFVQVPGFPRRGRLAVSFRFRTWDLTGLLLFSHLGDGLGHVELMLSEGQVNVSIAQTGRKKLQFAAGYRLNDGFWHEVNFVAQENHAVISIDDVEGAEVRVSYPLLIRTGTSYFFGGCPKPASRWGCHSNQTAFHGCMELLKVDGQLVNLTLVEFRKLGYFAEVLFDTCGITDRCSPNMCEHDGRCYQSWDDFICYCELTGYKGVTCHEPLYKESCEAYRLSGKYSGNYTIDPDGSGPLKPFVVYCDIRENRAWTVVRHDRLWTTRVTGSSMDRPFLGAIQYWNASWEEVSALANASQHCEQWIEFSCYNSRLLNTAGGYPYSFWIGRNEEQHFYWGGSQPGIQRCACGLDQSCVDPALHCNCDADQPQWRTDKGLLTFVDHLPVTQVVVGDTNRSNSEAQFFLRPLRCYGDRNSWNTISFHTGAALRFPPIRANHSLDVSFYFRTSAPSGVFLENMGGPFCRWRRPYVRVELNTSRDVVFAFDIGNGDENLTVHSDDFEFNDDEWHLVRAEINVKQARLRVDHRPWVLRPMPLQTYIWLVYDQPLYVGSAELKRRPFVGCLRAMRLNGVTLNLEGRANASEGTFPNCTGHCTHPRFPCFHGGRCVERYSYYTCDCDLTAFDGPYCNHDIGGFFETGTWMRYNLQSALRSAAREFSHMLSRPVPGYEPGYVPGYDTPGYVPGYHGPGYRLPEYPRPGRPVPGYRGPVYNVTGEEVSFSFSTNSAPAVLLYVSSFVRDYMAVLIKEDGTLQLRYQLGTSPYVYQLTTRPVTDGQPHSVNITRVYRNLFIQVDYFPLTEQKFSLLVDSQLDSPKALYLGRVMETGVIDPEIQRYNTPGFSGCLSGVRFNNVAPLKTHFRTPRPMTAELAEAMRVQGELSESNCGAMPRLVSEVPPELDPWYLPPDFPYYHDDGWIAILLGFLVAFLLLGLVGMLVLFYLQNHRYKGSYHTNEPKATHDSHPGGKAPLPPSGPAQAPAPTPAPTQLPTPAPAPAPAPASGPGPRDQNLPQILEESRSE
Described as above.
Description: as §1

Test [4] concerns the target T4, Caspr (native, adult rat brain membrane extracts) (rat, UniProt P97846 21-1381).
T4 construct: also called Paranodin; contactin-associated protein
T4 sequence (looked up): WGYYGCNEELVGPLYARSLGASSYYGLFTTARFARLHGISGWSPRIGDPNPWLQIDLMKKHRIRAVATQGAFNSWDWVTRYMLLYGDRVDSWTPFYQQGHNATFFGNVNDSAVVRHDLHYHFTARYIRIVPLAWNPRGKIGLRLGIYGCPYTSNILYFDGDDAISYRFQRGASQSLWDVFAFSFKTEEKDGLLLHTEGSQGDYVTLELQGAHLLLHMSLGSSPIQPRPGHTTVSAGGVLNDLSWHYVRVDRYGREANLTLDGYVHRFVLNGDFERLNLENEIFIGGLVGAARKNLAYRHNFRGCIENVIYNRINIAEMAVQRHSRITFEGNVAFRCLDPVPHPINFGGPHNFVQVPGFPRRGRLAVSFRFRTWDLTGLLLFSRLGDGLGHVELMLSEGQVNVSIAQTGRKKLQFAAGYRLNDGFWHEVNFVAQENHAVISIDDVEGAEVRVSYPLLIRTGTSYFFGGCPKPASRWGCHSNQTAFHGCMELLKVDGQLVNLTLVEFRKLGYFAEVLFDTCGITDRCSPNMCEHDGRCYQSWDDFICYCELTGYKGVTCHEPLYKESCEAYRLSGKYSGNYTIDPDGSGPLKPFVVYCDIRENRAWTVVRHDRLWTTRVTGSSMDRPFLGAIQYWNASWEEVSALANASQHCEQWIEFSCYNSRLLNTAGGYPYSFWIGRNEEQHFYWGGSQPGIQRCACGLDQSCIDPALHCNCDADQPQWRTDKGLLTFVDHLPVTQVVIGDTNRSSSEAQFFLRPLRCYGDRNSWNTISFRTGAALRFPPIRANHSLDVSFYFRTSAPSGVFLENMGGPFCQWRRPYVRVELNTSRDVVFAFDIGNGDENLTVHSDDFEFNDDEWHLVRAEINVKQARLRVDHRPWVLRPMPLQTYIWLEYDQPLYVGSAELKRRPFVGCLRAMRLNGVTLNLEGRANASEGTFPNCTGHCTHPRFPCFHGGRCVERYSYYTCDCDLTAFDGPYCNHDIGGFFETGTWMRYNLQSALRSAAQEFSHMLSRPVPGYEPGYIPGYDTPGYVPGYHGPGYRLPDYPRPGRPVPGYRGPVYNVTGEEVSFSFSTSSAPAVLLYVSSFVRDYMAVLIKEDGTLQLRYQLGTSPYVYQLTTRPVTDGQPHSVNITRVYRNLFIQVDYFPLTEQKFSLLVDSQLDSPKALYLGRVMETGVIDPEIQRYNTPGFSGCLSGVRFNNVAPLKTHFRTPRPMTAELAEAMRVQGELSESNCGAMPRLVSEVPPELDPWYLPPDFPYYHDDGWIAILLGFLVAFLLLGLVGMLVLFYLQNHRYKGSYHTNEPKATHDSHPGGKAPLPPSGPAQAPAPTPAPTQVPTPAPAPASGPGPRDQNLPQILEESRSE
In words: co-immunoprecipitation from adult rat brain membrane extracts, Western blot. Background: A western blot detects proteins with antibodies after separation by electrophoresis.
Description: Briefly, brain tissue was homogenized in ice-cold homogenizing buffer (320 mM sucrose, 10 mM Tris-HCl pH7.4, 1 mM NaHCO_3 pH7.4, 1 mM MgCl_2) supplemented with 1% protease inhibitor cocktail (Amersham), and subsequently centrifuged at 5,000 g for 15 min. The supernatant was collected and spun at 60,000 g (Beckman ultracentrifuge) for 60 min at 4° C. Pellets were then dissolved in a lysis buffer (10 mM Tris-HCl pH9, 150 mM NaCl, 0.5% Triton X-100, 1% sodium deoxycholate (DOC), 0.5% SDS, 2 mM EDTA, and 1% protease inhibitor cocktail) for subsequent experiments.

T2 sequence (P16388 whole entry): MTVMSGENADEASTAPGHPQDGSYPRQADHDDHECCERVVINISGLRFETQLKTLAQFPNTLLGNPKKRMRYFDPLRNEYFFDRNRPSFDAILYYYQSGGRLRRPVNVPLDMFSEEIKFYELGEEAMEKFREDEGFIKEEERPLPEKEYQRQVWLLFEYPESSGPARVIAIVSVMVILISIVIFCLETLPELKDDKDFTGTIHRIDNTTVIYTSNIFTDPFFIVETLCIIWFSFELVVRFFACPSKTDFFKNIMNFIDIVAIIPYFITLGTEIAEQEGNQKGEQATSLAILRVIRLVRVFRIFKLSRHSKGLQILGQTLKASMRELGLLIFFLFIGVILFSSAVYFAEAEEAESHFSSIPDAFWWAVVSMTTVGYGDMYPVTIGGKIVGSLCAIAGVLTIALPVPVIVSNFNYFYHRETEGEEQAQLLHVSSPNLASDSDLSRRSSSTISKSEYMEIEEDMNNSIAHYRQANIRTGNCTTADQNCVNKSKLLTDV

B1: GST-Nogo-N (other, human, UniProt Q9NQC3 186-370, looked up)
chain: DETLFALPAASEPVIRSSAENMDLKEQPGNTISAGQEDFPSVLLETAASLPSLSPLSAASFKEHEYLGNLSTVLPTEGTLQENVSEASKEVSEKAKTLLIDRDLTEFSELEYSEMGSSFSVSPKAESAVIVANPREEIIVKNKDEEEKLVSNNILHNQQELPTALTKLVKEDEVVSSEKAKDSFN
notes: domain: cytoplasmic N-terminal domain of Nogo-A (Nogo-N); also called Nogo-N-GST; Nogo-N-terminal-GST; not shown: glutathione S-transferase (GST) encoded by vector pGEX-KG
B1: the binding result is listed as “no binding” in test [1], “no binding (tested: 20 µg bead-bound protein)” in test [2] and “no binding (tested: 20 µg bead-bound protein)” in test [3].

B2: NB-3 (native, rat brain) (ligand, UniProt P97528 20-999, looked up)
chain: ESRFTRPIFIQEPQDVIFPLDLSRSEIILSCTASGYPSPHYRWKQNGTDIDFSMTYHYRLDGGSLAISSPRTDQDIGIYQCLATNPVGTILSRKAKLQFAYIEDFETKSRSTVSVREGQGVVLLCGPPPHFGELSYDWTFNDNPLYVQEDKRRFVSQNTGNLYIAKVEPSDVGNYTCFVTNKEAHRSVQGPPTPLVQRTDGVMGEYEPKIEVRFPETIQAAKDSSVKLECFALGNPVPDISWRRLDGSPMPGKVKYSNSQATLEIPKFQQEDEGFYECVAGNLRGRNLAKGQLIFYAPPEWEQKIQNTYLSIYDSLFWECKASGNPNPSYTWLKNGERLNTEERIQTENGTLIITMLNVSDSGIYQCAAENKYQTIYANAELRVLASAPDFSKNPIKKISVVQVGGDISIECKPNAFPKASISWKRGTENLKQSKRVFFLEDGSLKICNVTRSDAGSYTCVATNQFGNGKSSGSLIVKERTVITVPPSKMDVTVGESIVLPCQVSHDPTMEVLFVWYFNGDVIDLKKGVAHFERIGGESVGDLMIRNIQLGHSGKYLCTVQTTLERLSAVADIIVRGPPGPPEDVKVEHISSTTSQLSWRPGPDNNSPIQIFTIQTRTPFSVGWQAVATVPEILNGQTYNATVIGLSPWVEYEFRVVAGNNIGIGEPSKPSELLRTKASIPNVAPVNINGGGGSRSELVITWEPIPEELQNGEGFGYIIMFRPVGSTTWMKEKVALVESSKFIYRNESIMPLSPFEVKVGVYNNEGEGSLSTVSIVYSGEDEPRLAPRGTSVQSFSASDMEVSWNAIAWNRNTGRVLGYEVLYWTDNSKESMIGKIRVSGNVTTKNITGLRANTIYFASVRAYNTAGTGPSSPPVNVTTKKSPPSQPPANIAWKLSNSKLCLNWEHVKTMENESEVLGYKILYRQNRQSKTHVLETNNTSAELLVPFEEDYLIEIRTVSDGGDGSSSEEIRIPKMSSLSS
On to B2, for which the binding result in test [4] is “no binding”.
